Reference: the supplement of paper PMC12764529
± gives the half width of the 95% confidence interval.

What was measured:
[1] = folding stability dG unfold (combined trypsin and chymotrypsin); higher = more stable
Method in brief: (§1)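 Designed mini-proteins with no cysteine and under 80 residues were kept only if AlphaFold2 dimer inter-PAE was above 15. In a PA-tagged cDNA display construct, they were digested with trypsin and chymotrypsin and then sequenced. K50 was inferred by Bayesian fitting of counts, and unfolding free energy was derived per protease or combined against a sequence-predicted unfolded-state K50 and a shared folded-state K50.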

[2] = folding stability dG unfold from trypsin proteolysis; higher = more stable
Method in brief: as §1

[3] = folding stability dG unfold from chymotrypsin proteolysis; higher = more stable
Method in brief: as §1

| Sequence | folding stability dG unfold [1] [kcal/mol] | folding stability dG unfold [2] [kcal/mol] | folding stability dG unfold [3] [kcal/mol] |
| --- | --- | --- | --- |
| SAGGSAPEVRLSASREGNTVTVLALKPVGDRTYLVVTTYEVRELGEGFLVLSSSEVIPLPDGEGFFSAGGSA [r15_725_TrMRF] | 2.36 ± 0.032 | 1.626 ± 0.015 | 2.66 ± 0.044 |
| SAGGSAPFVPPGFVKSVEEFEVTFPDGSKYRVTLIEVDGGPLVLVEKPGVGEPKTLPFEKLLELLASAGGSA [r15_329_TrMRF] | 1.73 ± 0.13 | 1.88 ± 0.11 | 1.36 ± 0.075 |
| SAGGSAPKPDWIVRIEITVKFPGKTKKIDIVIDSPEALNQIINELKDEGFKDVEPKIEWVPLEEMKSAGGSA [r15_1015_TrROS] | 0.915 ± 0.26 | 0.296 ± 0.089 | 1.21 ± 0.17 |
| SAGGSAPKTVTFTTPKGYPITVTPGDRTVTLTHPDRPLATFDVPPDVPTFTITLPDGDTATITVDDSAGGSA [r2_385_TrMRF] | -0.446 ± 0.11 | -0.581 ± 0.088 | -0.408 ± 0.19 |
| SAGGSAPPNIEREEYEFYLRNPDGKELGPAKIEVIRDPGDPDRPILTIEWPNGEPMLFDADDIEPLSAGGSA [r15_954_TrROS] | 0.317 ± 0.19 | 0.18 ± 0.052 | 0.384 ± 0.17 |
| SAGGSAPPPIKIKFKYPNGRPMELEFNPENGNYEIKQPDGEKEEVPMENIKEIRIPPGIKDVEIVPSAGGSA [r15_1043_TrROS] | < -1 | -0.579 ± 0.27 | -0.0709 ± 0.41 |
| SAGGSAPPPKWIMFKIEATMPPNDLDNVVEELLKILFGFKIKNIEVEWEQVKDGYYKVPVWVMIRFSAGGSA [r15_138_TrROS] | 4.12 ± 0.4 | 3.01 ± 0.41 | 4.05 ± 0.093 |
| SAGGSAPPTYTFMIPIKEIYVPDPDNGKPKPIPVEEFADFLMPKFGIDVEILDVHPDWIQITVTPDSAGGSA [r15_55_TrROS] | 1.73 ± 0.19 | 1.81 ± 0.11 | 1.49 ± 0.091 |
| SAGGSAPPVKVDVEELDDDLVKVTVTFPGGPFTLKLYKDGKLLKEETVPEDETATFVLPKDALIVGSAGGSA [r15_581_TrMRF] | 1.36 ± 0.059 | 0.847 ± 0.051 | 1.59 ± 0.064 |
| SAGGSAPVTEGPNSITVTRDLDPSESEEEVRALAEEILAALPADVSVSVEFDPETGTATITITFPGSAGGSA [r15_210_JUSTAS] | 2.15 ± 0.055 | 2.31 ± 0.054 | 1.95 ± 0.051 |
| SAGGSAPVTLETEFFGENGLLVRTEAVVDPATGEVTVRTETFPVITGPADNPDVVKKLLEEAGIDASAGGSA [r2_304_TrMRF] | 0.887 ± 0.23 | 0.645 ± 0.059 | 0.817 ± 0.094 |
| SAGGSARALLEELEVLSEEDRGDFTVVTVKGPAAEYPAEEVRAALEALGIAVEYDPATGEVTVYVASAGGSA [r15_599_JUSTAS] | 0.69 ± 0.071 | -0.0454 ± 0.023 | 0.964 ± 0.084 |
| SAGGSARWFLIRIEFVFGGEPRTFSVLIDVDPGEIEIEIPPELQKKGFQIKDIEIWPLPPEDLKKLSAGGSA [r15_853_TrROS] | 2.84 ± 0.18 | 2.22 ± 0.04 | 3.18 ± 0.11 |
| SAGGSASAEELAAELARRLAEELGLEVTKVEITEVTPDRVVVRVTVTVTLPNGEKVTRELTLVLEPSAGGSA [r15_276_TrROS_Hall] | 3.05 ± 0.11 | 2.16 ± 0.054 | 3.24 ± 0.12 |
| SAGGSASAPVPTSVSVSVSSDPASGLTTIPTTVTYNGKTFPMSVTTTPSGTVVTKVGGSTFTVPAASAGGSA [r15_507_JUSTAS] | -0.0606 ± 0.077 | 0.0583 ± 0.075 | -0.286 ± 0.11 |
| SAGGSASIKVTYRFPPDTTVEQAIEDLIAYLEAQTNVKISIPSYTVEREGDYLLVTADILIEPLPESAGGSA [r15_105_TrMRF] | 4.59 ± 0.073 | 4.18 ± 0.086 | 4.61 ± 0.056 |

| Sequence | folding stability dG unfold [1] [kcal/mol] | folding stability dG unfold [2] [kcal/mol] | folding stability dG unfold [3] [kcal/mol] |
| --- | --- | --- | --- |
| SAGGSASLASLRKVGETVTYTITPDGTLTVTTHTFYRDPVTGELVVESTTTTTPIPPGDAAALAALSAGGSA [r15_207_JUSTAS] | 2.5 ± 0.098 | 2.72 ± 0.072 | 2.37 ± 0.054 |
| SAGGSASLEELAEKLREKLPPEEAEKLRELLKELEEKGYEIVEIRIEVLPNGEKKVTIKLKVKKKPSAGGSA [r15_613_TrROS_Hall] | 3.41 ± 0.17 | 3.34 ± 0.2 | 3.32 ± 0.26 |
| SAGGSASLEEVASLPASALAAAAGLTALSVEVTREPDGTVTVTIETRPPDGPVVTVTYTFPVDPAASAGGSA [r15_805_JUSTAS] | 2.06 ± 0.39 | 0.848 ± 0.2 | 2.6 ± 0.098 |
| SAGGSASLNLTPDDNVTLTVSTPDGSGATVEVKVEKLPDGTIKLTETVTWPDGTVSTRTSTISTKASAGGSA [r15_476_JUSTAS] | 0.893 ± 0.041 | 1.08 ± 0.045 | 0.598 ± 0.028 |
| SAGGSASMARVEAIAEEIAPRLKAEGRPIARIEVTATRLPDGTVVVPITLTTPDGTPVYTFEVVVESAGGSA [r15_232_JUSTAS] | 1.48 ± 0.058 | 1.03 ± 0.051 | 1.74 ± 0.032 |
| SAGGSASMSKTTTETSPDSETTTTTYYPNGTVTTTKTTTVGEGTTTTTTTTKVLFIPGPGVLVPEPSAGGSA [r15_746_JUSTAS] | 0.259 ± 0.046 | -0.174 ± 0.045 | 0.514 ± 0.062 |
| SAGGSASMVEEEVTLQKKVKSEEEALKFAEEVKESNPHVKTVEVSLEKLPDGSILVNVTIKRILKPSAGGSA [r15_726_JUSTAS] | 4.21 ± 0.29 | 4.43 ± 0.4 | 3.31 ± 0.093 |
| SAGGSASNLKVTYKITIGSTTITVTLPEGSEKELKKIPNAEVTPISEIEPAPPPILYFKFENNNLVSAGGSA [r15_443_JUSTAS] | 1.09 ± 0.089 | 0.739 ± 0.047 | 1.25 ± 0.17 |
| SAGGSASPEKVAEELKKKGYKEVKITKDPNTNVTTVTVEDPSGKKYTLTVDPKNPTVVSKKEFSLDSAGGSA [r15_648_JUSTAS] | 1.25 ± 0.14 | 0.926 ± 0.043 | 1.51 ± 0.096 |
| SAGGSASRRLFVRTLPDDAVIVVEVPPGMSEEEAVEIAERRAEAAERVLRAAIEAERAGKAPVIPLSAGGSA [r15_704_TrMRF] | 0.342 ± 0.11 | 0.594 ± 0.13 | -0.0499 ± 0.29 |
| SAGGSASSMLSPSLYVTTITVKKPGGMTVTETVPGTPEEVERLIEELKKKGLEVEKVDVVPVSELVSAGGSA [r15_640_JUSTAS] | 1.66 ± 0.058 | 1.9 ± 0.062 | 1.47 ± 0.034 |
| SAGGSASSYGIEIEFSEDPNSKTKKITITVTRPDGTVETVTITNPDITDEEAKKIGEELANEVANSSAGGSA [r15_526_JUSTAS] | 2.06 ± 0.059 | 2.19 ± 0.055 | 1.93 ± 0.02 |
| SAGGSASVTTTVTLPNGEVVTITFDPANPTTATLSFPDGTTVTLSFSSPEEALARAIEELLAGKPLSAGGSA [r15_38_JUSTAS] | 2.48 ± 0.081 | 2.99 ± 0.1 | 2.01 ± 0.056 |
| SAGGSATAEELADEIANYMADRHGMEVKKIEITDVDNDRVVFRAEVEMPNPNGKKHTHPFTIEIPVSAGGSA [r15_276_TrROS] | 0.226 ± 0.29 | -0.0958 ± 0.17 | 0.303 ± 0.31 |
| SAGGSATIEEKIRNIAKEQGFPVTDVQVRRTPGKVYIMFQAKDPRMYYIEIDNDKIKIMPAEDIKPSAGGSA [r15_901_TrROS] | 1.36 ± 0.06 | 1.14 ± 0.027 | 1.57 ± 0.064 |
